From IntAct's records for PubMed 29178645

B1: Protein SHQ1 homolog (Homo sapiens), Q6PI26 (parent)
chain: MLTPAFDLSQDPDFLTIAIRVPYARVSEFDVYFEGSDFKFYAKPYFLRLTLPGRIVENGSEQGSYDADKGIFTIRLPKETPGQHFEGLNMLTALLAPRKSRTAKPLVEEIGASEIPEEVVDDEEFDWEIEQTPCEEVSESALNPQCHYGFGNLRSGVLQRLQDELSDVIDIKDPDFTPAAERRQKRLAAELAKFDPDHYLADFFEDEAIEQILKYNPWWTDKYSKMMAFLEKSQEQENHATLVSFSEEEKYQLRKFVNKSYLLDKRACRQVCYSLIDILLAYCYETRVTEGEKNVESAWNIRKLSPTLCWFETWTNVHDIMVSFGRRVLCYPLYRHFKLVMKAYRDTIKILQLGKSAVLKCLLDIHKIFQENDPAYILNDLYISDYCVWIQKVKSKKLAALAEALKEVSLTKAQLGLELEELEAAALLVQEEETALKAAHSVSGQQTLCSSSEASDSEDSDSSVSSGNEDSGSDSEQDELKDSPSETVSSLQGPFLEESSAFLIVDGGVRRNTAIQESDASQGKPLASSWPLGVSGPLIEELGEQLKTTVQVSEPKGTTAVNRSNIQERDGCQTPNN
partner: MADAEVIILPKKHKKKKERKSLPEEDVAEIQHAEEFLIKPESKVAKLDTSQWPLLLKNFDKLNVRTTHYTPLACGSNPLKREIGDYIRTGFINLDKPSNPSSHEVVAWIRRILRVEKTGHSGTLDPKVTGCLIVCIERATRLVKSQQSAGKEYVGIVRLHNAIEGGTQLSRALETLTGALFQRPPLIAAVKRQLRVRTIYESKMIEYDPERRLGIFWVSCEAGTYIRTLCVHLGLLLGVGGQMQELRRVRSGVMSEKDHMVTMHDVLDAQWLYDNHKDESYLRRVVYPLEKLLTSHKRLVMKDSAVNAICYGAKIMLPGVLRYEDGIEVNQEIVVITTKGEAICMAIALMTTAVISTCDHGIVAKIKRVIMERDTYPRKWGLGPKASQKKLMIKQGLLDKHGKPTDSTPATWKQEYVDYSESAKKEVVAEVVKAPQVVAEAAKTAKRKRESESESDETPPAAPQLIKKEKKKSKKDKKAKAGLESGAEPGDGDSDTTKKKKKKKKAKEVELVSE

Variants of: B1
Conditions: with dkc1_human DKC1, O60832

Row | Variant | effect of a mutation on the interaction
1 | R335C | decreasing interaction strength
2 | R335C;A426V | decreasing interaction strength
3 | A426V | decreasing interaction strength
